Data reported in publication PMC11183095 (2024).

Target: Recombinant His-PGAM1 (human, UniProt P18669 1-254)
Assay: BLI

Recombinant His-PGAM1, sequence (P18669 whole entry): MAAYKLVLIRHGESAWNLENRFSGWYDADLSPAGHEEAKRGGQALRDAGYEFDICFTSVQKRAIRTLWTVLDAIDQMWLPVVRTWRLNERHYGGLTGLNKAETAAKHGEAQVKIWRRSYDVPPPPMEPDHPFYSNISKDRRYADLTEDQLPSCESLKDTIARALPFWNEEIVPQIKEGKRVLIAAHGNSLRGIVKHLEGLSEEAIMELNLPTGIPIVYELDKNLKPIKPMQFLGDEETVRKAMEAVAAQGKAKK

Kd: 2240 nM
B1: Recombinant GST-PKM2 (enzyme)
chain: not shown
